Reference: US20090068109A1 (Janssen / Centocor, published 2009)
Changes are numbered by the printed parent chain.

Key:
human MCP-1 (human) [1] = target: human MCP-1 (human) (UniProt P13500); experiment: BioVeris (IGEN) solution equilibrium titration
human MCP-1 (human) [2] = target: human MCP-1 (human) (UniProt P13500); experiment: inhibition of 125I-MCP-1 binding to THP-1 cells (CCR2)
human MCP-1 (human) [3] = target: human MCP-1 (human) (UniProt P13500); experiment: cell-based or functional assay
human MCP-3 = target: T1, human MCP-3 (human, UniProt P80098 24-99); experiment: Biacore, captured IgG
T1 construct: also called CCL7
T1 sequence (P80098 24-99 limits assumed): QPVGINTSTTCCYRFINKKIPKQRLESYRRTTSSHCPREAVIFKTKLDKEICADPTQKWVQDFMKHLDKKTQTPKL
Method: (§1) Specificity of Optimized Antibodies in Biacore Antibody Capture Mode (CNTO). Specificity evaluation was performed with selected IgGs. In Biacore 100 nM human MCP-1, human MCP-2, 3, 4 and human Eotaxin 1, 2 and 3 were added to captured optimized antibodies.

human Eotaxin-3 = target: T2, human Eotaxin-3 (human, UniProt Q9Y258 24-94); experiment: Biacore, captured IgG
T2 sequence (looked up): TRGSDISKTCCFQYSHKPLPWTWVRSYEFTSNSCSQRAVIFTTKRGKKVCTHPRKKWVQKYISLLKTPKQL
Method: as §1

human MCP-2 [4] = target: T3, human MCP-2 (human, UniProt P80075 24-99); experiment: Biacore, captured IgG
T3 construct: also called CCL8
T3 sequence (looked up): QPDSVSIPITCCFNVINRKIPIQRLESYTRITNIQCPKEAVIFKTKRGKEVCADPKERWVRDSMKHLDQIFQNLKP
Method: as §1

human Eotaxin-2 = target: T4, human Eotaxin-2 (human, UniProt O00175 27-104, limits assumed); experiment: Biacore, captured IgG
T4 sequence (looked up): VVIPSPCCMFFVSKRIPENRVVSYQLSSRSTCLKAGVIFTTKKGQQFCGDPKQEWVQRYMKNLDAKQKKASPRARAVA
Method: as §1

human MCP-4 = target: T5, human MCP-4 (human, UniProt Q99616 24-98); experiment: Biacore, captured IgG
T5 construct: also called CCL13
T5 sequence (Q99616 24-98 limits assumed): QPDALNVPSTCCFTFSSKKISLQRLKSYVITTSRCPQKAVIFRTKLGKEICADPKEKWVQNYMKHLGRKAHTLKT
Method: as §1

human Eotaxin = target: T6, human Eotaxin (human, UniProt P51671 24-97); experiment: BioVeris solution equilibrium titration
T6 construct: also called Eotaxin-1; Eotaxin 1
T6 sequence (P51671 24-97 limits assumed): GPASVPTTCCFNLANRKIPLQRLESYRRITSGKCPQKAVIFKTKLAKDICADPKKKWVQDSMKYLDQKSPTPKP
Method: Solution Equilibrium Titration (SET) Method for KD Determination and Cross-Reactivity Studies Using BioVeris. Affinity determination in solution was basically performed as described in the literature (Friguet et al., 1985). In order to improve the sensitivity and accuracy of the SET method, it was transferred from classical ELISA to ECL based BioVeris technology (Haenel et al., 2005, accepted for publication in Analytical Biochemistry). 1 mg/ml goat-anti-human (Fab)₂ or goat-anti-mouse IgG, Fc fragment specific antibodies (Jackson Immuno Research) were labelled with BV-tag™ NHS-Ester (Bioveris Europe, Witney, Oxfordshire, UK) according to manufacturer's instructions. The experiments were carried out in polypropylene microtiter plates and PBS pH 7.4 with 0.5% BSA and 0.02% Tween 20 as assay buffer. Unlabeled antigen was diluted in 4ⁿ series: For human and cyno MCP-1 a concentration range of 10 pM to 40 nM and for cross-reactivity controls (Eotaxin and MCP-2) a concentration range of 40 pM to 160 nM was chosen. Wells without antigen were used to determine Smax values. After addition of 100 pM Fab or IgG (final concentration in 75 μL final volume), the mixture was incubated for 2 hours at RT. Subsequently a mixture of 25 μl Dynabeads (0.4 mg/ml M-280 Streptavidin, DYNAL, Hamburg), coated with 0.25 μg/ml biotinylated MCP-1 (K69) and BV-tag labeled detection antibody in a final dilution of 1:4000 for anti-human Fab or 1:2000 for anti-mouse IgG were added per well. After incubation for 30 min on an Eppendorf shaker (700 rpm) at RT, electrochemiluminescence signals were detected using a M-384 SERIES® Workstation (Bioveris Europe) Data were evaluated with Origin 5.0 (Microcal) software applying customized fitting models (for Fab: Haenel et al., 2005, accepted for publication in Analytical Biochemistry; for IgG: according to Piehler et al., 1997).
Specificity Testing Using BioVeris. Beside the affinity also the specificity, especially the cross-reactivity to Eotaxin and MCP-2, was analyzed in solution equilibrium titration (SET) using BioVeris. No cross-reactivity to human MCP-2 was detectable for any of the selected 16 Fabs and 15 IgGs tested (one of the 16 selected IgGs was not available). As human MCP-1, human MCP-2 binds mainly to the CCR2 receptor, while human Eotaxin predominantly binds to the CCR3 receptor.

human MCP-1 [5] = target: T7, human MCP-1 (human, UniProt P13500 24-99); experiment: inhibition of 125I-MCP-1 binding to THP-1 cells (CCR2)
T7 construct: mature; also called hMCP-1; CCL2
T7 sequence (P13500 24-99): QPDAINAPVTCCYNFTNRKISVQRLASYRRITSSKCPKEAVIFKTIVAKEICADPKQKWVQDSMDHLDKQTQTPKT

human MCP-2 [6] = target: T3, human MCP-2; experiment: Biacore, captured Fab
Method: For the specificity analysis of Fabs, surface plasmone resonance was used (Biacore 3000, Uppsala, Sweden) using the capture assay was used. Fabs were captured and the various proteins (MCP-2, -3, -4 and Eotaxin-1, -2 and -3) were used as analytes. CM5 chips (Biacore, Sweden) were coated with 6500-8000 RU anti-F(ab)₂ (Dianova, Affipure F(ab)₂ fragment goat anti-human IgG, F(ab)₂ fragment specific; 10 mM acetate buffer, pH 4.5) on all 4 flow cells, using standard EDC-NHS amine coupling chemistry. The flow cells 2-4 were captured with specific anti-MCP-1 Fabs (20 μl of 500 nM Fab at a flow rate of […], resulted capture density 300-400RU). After capturing of Fabs, the chemokines were injected (20 μl, flow rate 20 μl/min, PBS pH 7.4) at a concentration of 100 nM. Chemokines were stored in small aliquots and only freshly thawed material with maximum 1 freeze thaw cycle was used for the measurements. To avoid a combination of off rates aroused by the off rate of MCP-1, Fab specific interaction and the anti-Fab/Fab interaction, buffer was injected, to determine the dissociation of anti-Fab/Fab interaction. The achieved buffer sensorgram was subtracted from the specific one. The response units were normalized to the amount of capture antibody onto the surface.

human MCP-1 [7] = target: T7, human MCP-1; experiment: Biacore, Fab
cynomolgus monkey MCP-1 = target: T8, cynomolgus monkey MCP-1 (cynomolgus monkey, UniProt P61274 24-99); experiment: Biacore, Fab
T8 construct: also called cyno MCP-1; cyno CCL-2
T8 sequence (P61274 24-99 limits assumed): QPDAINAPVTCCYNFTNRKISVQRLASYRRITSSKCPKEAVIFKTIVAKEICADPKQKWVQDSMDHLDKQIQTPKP

human MCP-1 [8] = target: T7, human MCP-1; experiment: cell-based or functional assay

Chain of human MCP-1 (human) (P13500 24-99): as the sequence (P13500 24-99) above

B1: C775 Fab (Fab, from another filing, V domains shown)
VH: QVQLKQSGAELVRPGASVKLSCKASGYTFTDYYINWVKQRPGQGLEWIARIYPGTGNTYYNENFKGKATLTAEKSSSTAYMQLSSLTSEDSAVYFCARSGSTVVGNYYGMDYWGQGTSVTVSS
VL: SIVMTQTPKFLLVSAGDRVSITCKASQSVSNDVAWYQQKPGQSPKLLIYYASNRYTGVPDRFTGSGYGTDFTFTISTVQAEDLAVYFCQQDYSSPWTFGGGTKLEIKR
Kd (human MCP-1 (human) [1]): 65 nM | IC50 (human MCP-1 (human) [2]): 35.6 nM | Inhibition of Ca2+ Mobilization IC50 (human MCP-1 (human) [3]): 71.5 nM

B2: C775 IgG (antibody, from another filing, V domains shown)
VH: B1 VH
VL: B1 VL
IC50 (human MCP-1 (human) [2]): 25.6 nM | Inhibition of Ca2+ Mobilization IC50 (human MCP-1 (human) [3]): 62.3 nM

B3: MOR03747 IgG1 (antibody, V domains shown)
VH: QVQLVESGGGLVQPGGSLRLSCAASGFTFRSYGMSWVRQAPGKGLEWVSNIRSDGSYTYYADSVKGRFTISRDNSKNTLYLQMNSLRAEDTAVYYCARFEFTPWTYFDFWGQGTLVTVSS
VL: DIELTQPPSVSVAPGQTARISCSGDNLGKKYVYWYQQKPGQAPVLVIYDDDNRPSGIPERFSGSNSGNTATLTISGTQAEDEADYYCQSYDRFSSTGFGGGTKLTVL
notes: Human IgG1 lambda
binding result (human MCP-3): no binding (tested: 100 nM) | binding result (human Eotaxin-3): no binding (tested: 100 nM) | binding result (human MCP-2 [4]): no binding (tested: 100 nM) | binding result (human Eotaxin-2): no binding (tested: 100 nM) | binding result (human MCP-4): no binding (tested: 100 nM) | binding result (human Eotaxin): no binding (tested: 40 pM to 160 nM)

B4: MOR03747 Fab (Fab, V domains shown)
VH: B3 VH
VL: B3 VL
notes: HuCAL Fab with C-terminal FLAG and 6xHis tags
binding result (human Eotaxin): no binding (tested: 40 pM to 160 nM)

B5: MOR03548 Fab (Fab, V domains shown)
VH: B3 VH
VL: B3 VL with D91T, R92A, F93Q, T96A, G97S
notes: Parental HuCAL GOLD Fab with C-terminal FLAG and 6xHis tags
IC50 (human MCP-1 [5]): 11 nM | binding result (human MCP-2 [6]): no binding (tested: 100 nM) | Kd (human MCP-1 [7]): 42 nM | Kd (cynomolgus monkey MCP-1): 54 nM | Ca2+ mobilization IC50 (human MCP-1 [8]): 124 nM

B6: MOR03744 Fab (Fab, V domains shown)
VH: B3 VH
VL: B3 VL with S89T, G97A
notes: as for B4
binding result (human Eotaxin): no binding (tested: 40 pM to 160 nM)

B7: MOR03744 IgG1 (antibody, V domains shown)
VH: B3 VH
VL: B3 VL with S89T, G97A
notes: Human IgG1 lambda
binding result (human MCP-3): no binding (tested: 100 nM) | binding result (human Eotaxin-3): no binding (tested: 100 nM) | binding result (human MCP-2 [4]): no binding (tested: 100 nM) | binding result (human Eotaxin-2): no binding (tested: 100 nM) | binding result (human MCP-4): no binding (tested: 100 nM) | binding result (human Eotaxin): no binding (tested: 40 pM to 160 nM)
